The target of data set [1] is T1, RAG1 nonamer binding domain (NBD) (UniProt P15919 389-456).
T1 sequence: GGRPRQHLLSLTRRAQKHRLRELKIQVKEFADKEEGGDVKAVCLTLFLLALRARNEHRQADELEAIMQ
In words: EMSA; RAG EMSA: 22.5 mM MOPS-KOH pH 7.0, 20% DMSO, 2.2 mM DTT, 50 mM K-glutamate, 2% glycerol, 100 ng/ml BSA, 2 h, 25 C; NBD EMSA as in earlier work; BLI: SAX sensors, NBD 0.36-2.22 nM, 1:1 fit, buffer not stated. Particulars: protein: recombinant, tags: His (pET28a, Ni-NTA), chain copies: 2, T/G mismatch. In general terms: In EMSA bound probe runs differently from free probe, usually more slowly.

Data set [2] addresses T1, RAG1 nonamer binding domain (NBD). Description: BLI; RAG EMSA: 22.5 mM MOPS-KOH pH 7.0, 20% DMSO, 2.2 mM DTT, 50 mM K-glutamate, 2% glycerol, 100 ng/ml BSA, 2 h, 25 C; NBD EMSA as in earlier work; BLI: SAX sensors, NBD 0.36-2.22 nM, 1:1 fit, buffer not stated. Particulars: protein: recombinant, tags: His (pET28a, Ni-NTA), chain copies: 2, biotin (BLI).

By Kd is commonly meant the equilibrium constant for the complex coming apart.

B1: MTCI (NM50/NM51) (dsDNA)
DNA 1: TTCAGGGAGCTCTTGTGTTCAAACCACGAAGAAGACGCAGTTTAATCTCA
DNA 2: TGAGATTAAACTGCGTCTTCTTCGTGGTTTGAACGCAAGAGCTCCCTGAA
As for B1, the binding result in data set [1] (label: 5'-32P on NM50) is given as “binds”.

B2: FI (HK5/HK6) (dsDNA)
DNA 1: GGCCCTGCTTGACTGTGTCACAACCCCATCCAGTGGCCCTGAACTTGG
DNA 2: CCAAGTTCAGGGCCACTGGATGGGGTTGTGACGCAGTCAAGCAGGGCC
For B2, the Kd in data set [2] (label: 5'-32P on HK5 (EMSA), T/G mismatch) came to 0.69 nM.

B3: MTCII (NM88/NM89) (dsDNA)
DNA 1: TGCCATTGGCGTGAATGAGGGGAAGCCCCTCCTGACAGCTGGATGGTAGGACAAAGCCCTCTA
DNA 2: TAGAGGGCTTTGTCCTACCATCCAGCTGTCAGGAGGGGCTTCCCCTCGTTCACGCCAATGGCA
On to B3, for which the binding result in data set [1] (label: 5'-32P on NM88) is reported as “binds”.

B4: MTCIV (NM92/NM93) (dsDNA)
DNA 1: GGAGGGGCTTCCCCTTGTTCACGCCAATGGCAGCGCCAGGTGTTCAGGGAGCTCTTGCGTTCAAACCACGA
DNA 2: TCGTGGTTTGAACGCAAGAGCTCCCTGAACACCTGGCGCTGCCATTGGCGTGAACGAGGGGAAGCCCCTCC
Regarding B4, the binding result in data set [1] (label: 5'-32P on NM92) is on record as “binds”.

B5: MTCIII (NM90/NM91) (dsDNA)
DNA 1: TCACGCCAATGGCAGTGCCAGGTGTTCAGGGAGCTCTTGCGTTCAAACCACGA
DNA 2: TCGTGGTTTGAACGCAAGAGCTCCCTGAACACCTGGCGCTGCCATTGGCGTGA
Take B5: the binding result in data set [1] (label: 5'-32P on NM90) is given as “binds”.

B6: KI (AP66/AP67) (dsDNA)
DNA 1: GAAAAAAGTGGCTCCCTGCCCAAGTATCCCTGTAAAACAAAAACCAAAAG
DNA 2: CTTTTGGTTTTTGTTTTACAGGGATACTTGGGCGGGGAGCCACTTTTTTC
In the case of B6, the Kd in data set [2] (label: 5'-32P on AP66 (EMSA), T/G mismatch) is 0.36 nM.

B7: 12RSS (AKN1/AKN2) (dsDNA)
DNA 1: GATCAGCTGATAGCTACCACAGTGCTACAGACTGGAACAAAAACCCTGCT
DNA 2: TAGCAGGGTTTTTGTTCCAGTCTGTAGCACTGTGGTAGCTATCAGCTGAT
In the case of B7, the equilibrium dissociation constant (Kd) in data set [2] (label: 5'-32P on AKN1 (EMSA)) is 0.7 nM.

For the origin of these results see PMC9595545, “Nonamer dependent RAG cleavage at CpGs can explain mechanism of chromosomal translocations associated to lymphoid cancers”.
